For assay [1], the target named is TNF Binding Protein I (human) (UniProt P19438). As to the kind of experiment: solid phase assay, 125I-TBP-I bound to TNF-α with 10 µg/ml IFN-gamma as competitor.
Assay [2] has as its target Tumor Necrosis Factor (TNF) Binding Protein II (human) (UniProt P20333). Nature of the assay: solid phase assay, 125I-TBP-II bound to TNF-α with 10 µg/ml IFN-gamma as competitor.
Assay [3] addresses TNF Binding Protein I (human) (UniProt P19438). Nature of the assay: solid phase assay, 125I-TBP-I bound to TNF-α with 10 µg/ml IL-1α as competitor.
Assay [4] concerns the target Tumor Necrosis Factor (TNF) Binding Protein II (human) (UniProt P20333). Nature of the assay: solid phase assay, 125I-TBP-II bound to TNF-α with 10 µg/ml IL-1α as competitor.
In assay [5] the target is TNF Binding Protein I (human) (UniProt P19438). Nature of the assay: solid phase assay, 125I-TBP-I bound to TNF-α with 10 µg/ml IL-6 as competitor.
Assay [6] deals with Tumor Necrosis Factor (TNF) Binding Protein II (human) (UniProt P20333). As to the kind of experiment: solid phase assay, 125I-TBP-II bound to TNF-α with 10 µg/ml IL-6 as competitor.

Regarding “IFN-gamma (from UniProt P01579 24-166) (ligand)”, the bound CPM in assay [1] stood at 28000 CPM; in assay [2] it was 18500 CPM.
Regarding “IL-1α (from UniProt P01583 113-271) (ligand)”, the bound CPM stood at 28100 CPM in assay [3] and 17800 CPM in assay [4].
Regarding “IL-6 (from UniProt P05231 30-212) (ligand)”, the bound CPM in assay [5] was 27000 CPM; in assay [6] it was 18600 CPM.

Values taken from US8138323.
